Results published in paper PMC4005678.

Target: Klf4 ZnF1-3 DNA-binding domain (mouse) (UniProt Q60793)
Assay: fluorescence polarization
Settings: FP: 20 mM Tris-HCl pH 7.5, 150 mM NaCl, 5% (v/v) glycerol, 0.5 mM TCEP, ~22 C, probe 10 nM (WT) or 1 nM (E446A)

Klf4 ZnF1-3 DNA-binding domain (mouse), sequence (Q60793 396-483): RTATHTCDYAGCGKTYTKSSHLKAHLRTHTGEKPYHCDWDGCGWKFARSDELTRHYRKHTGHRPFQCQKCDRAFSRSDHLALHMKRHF

GAGGCGTGGC / TTGCCACGCCTC [Klf4 site 5caC/M]
binding signal (fold weaker than M/M) (5caC at position 5 of strand 1, 5mC at position 7 of strand 2): 6

GAGGCGTGGC / TTGCCACGCCTC [Klf4 site 5fC/M]
binding signal (fold weaker than M/M) (5fC at position 5 of strand 1, 5mC at position 7 of strand 2): 3

GAGGCGTGGC / TTGCCACGCCTC [Klf4 site 5hmC/M]
binding signal (fold weaker than M/M) (5hmC at position 5 of strand 1, 5mC at position 7 of strand 2): 2

GAGGCGTGGC / TTGCCACGCCTC [Klf4 site C/C]
binding signal (fold weaker than M/M): 1.5

GAGGCGTGGC / TTGCCACGCCTC [Klf4 site C/M]
binding signal (fold weaker than M/M) (repeat series, C at position 5 of strand 1, 5mC at position 7 of strand 2): 1.5
binding signal (fold Kd vs M/M) (text: difference only ~40%, C at position 5 of strand 1, 5mC at position 7 of strand 2): 1.4
